Laboratory results as given in US20110207152A1.

Assays:
[1] = target: F-actin prepared from rabbit muscle actin (rabbit) (UniProt P68135); test: cell-based or functional assay
[2] = target: native human plasma gelsolin (human) (UniProt P06396); test: sandwich ELISA on human plasma; detection antibody GS2C4 (HRP), capture antibody GN3E9
[3] = target: native human plasma gelsolin (human) (UniProt P06396); test: sandwich ELISA on human plasma; detection antibody GS2C4 (HRP), capture antibody GF2D6
[4] = target: native human plasma gelsolin (human) (UniProt P06396); test: sandwich ELISA on human plasma; detection antibody GS2C4 (HRP), capture antibody GC1C10

Chain of native human plasma gelsolin (P06396 28-782 limits assumed): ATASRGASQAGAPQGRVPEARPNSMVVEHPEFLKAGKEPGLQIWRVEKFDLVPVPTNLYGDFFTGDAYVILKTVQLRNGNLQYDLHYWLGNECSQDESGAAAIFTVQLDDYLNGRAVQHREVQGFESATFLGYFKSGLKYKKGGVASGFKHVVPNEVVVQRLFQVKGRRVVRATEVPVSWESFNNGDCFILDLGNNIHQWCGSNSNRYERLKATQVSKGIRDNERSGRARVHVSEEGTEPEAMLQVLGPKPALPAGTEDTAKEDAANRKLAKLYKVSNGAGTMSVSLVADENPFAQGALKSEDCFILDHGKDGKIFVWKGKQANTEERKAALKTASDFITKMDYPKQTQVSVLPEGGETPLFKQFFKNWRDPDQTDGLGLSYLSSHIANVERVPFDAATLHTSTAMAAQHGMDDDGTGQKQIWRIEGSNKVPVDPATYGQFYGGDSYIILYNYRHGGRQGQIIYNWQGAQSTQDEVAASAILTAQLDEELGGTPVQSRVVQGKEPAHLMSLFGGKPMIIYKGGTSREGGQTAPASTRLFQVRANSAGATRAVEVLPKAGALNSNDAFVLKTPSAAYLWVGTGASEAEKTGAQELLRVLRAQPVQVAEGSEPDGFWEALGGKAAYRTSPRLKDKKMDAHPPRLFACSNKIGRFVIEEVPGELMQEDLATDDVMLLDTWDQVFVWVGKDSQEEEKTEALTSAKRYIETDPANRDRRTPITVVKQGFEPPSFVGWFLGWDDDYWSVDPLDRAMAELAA
Chain of native human plasma gelsolin (human) (P06396 28-782 limits assumed): as above

| % of F-actin at 0.1 mg/ml gelsolin (F-actin severing assay) [1] | % of F-actin at 0.5 mg/ml gelsolin (F-actin severing assay) [1] | % of F-actin at 1.0 mg/ml gelsolin (F-actin severing assay) [1] | OD (sandwich ELISA pairing) [2] | OD (sandwich ELISA pairing) [3] | OD (sandwich ELISA pairing) [4] | Substance |
| --- | --- | --- | --- | --- | --- | --- |
| 35% | 21% | 12% |  |  |  | native human plasma gelsolin (from UniProt P06396 28-782) |
|  |  |  | 0.025 OD | 0.013 OD | 0.014 OD | commercial anti-human gelsolin antibody GS2C4 (Sigma Chemical Co.) |
